Laboratory results published in patent publication US20140170136A1 (NVIP, published 2014).

Tests used:
murine NGF = molecular target: T1, murine NGF (mouse, UniProt P01139 122-241); assay: ELISA: CHO supernatant on NGF, goat anti-equine IgG-HRP, OD450, against mock supernatant
T1 construct: Coated on the ELISA plate; also called mouse NGF
Procedure: Equinised heavy and light chain cDNAs were transfected into CHO cells, the supernatants harvested and reacted in ELISA format with either equine or murine NGF. Following incubation and wash steps, the bound equine antibody was detected by reactivity with a goat-anti equine IgG specific polyclonal antibody linked to horseradish peroxidase (HRP) and developed using TMB. The optical density of the resulting product was measured at 450 nm and compared with that from mock empty vector transfected supernatant (denoted as “Mock” in FIG. 1). The results are shown in the graph of FIG. 1. Binding to mouse NGF is shown for the HC2 (IgG2 constant domain) equinised antibody (termed eqN-HC2+eqN-kLC-1). In the second part of the graph, binding of the eqN-HC2+eqN-kLC-1 antibody comprising the eqN-kLC-1 light chain and the eqN-HC2 (IgG2) constant chain to equine NGF is shown.

[1] = molecular target: T2, complement C1q (from human serum) (human, UniProt P02745 23-245; P02746 28-253; P02747 29-245); assay: ELISA: antibody captured on NGF-coated plate, human serum 1/100, bound C1q detected with anti-C1q-HRP, OD450
T2 construct: mature; Native C1q in human serum diluted 1/100
T2 sequence (P02745 23-245, chain 1 of 3): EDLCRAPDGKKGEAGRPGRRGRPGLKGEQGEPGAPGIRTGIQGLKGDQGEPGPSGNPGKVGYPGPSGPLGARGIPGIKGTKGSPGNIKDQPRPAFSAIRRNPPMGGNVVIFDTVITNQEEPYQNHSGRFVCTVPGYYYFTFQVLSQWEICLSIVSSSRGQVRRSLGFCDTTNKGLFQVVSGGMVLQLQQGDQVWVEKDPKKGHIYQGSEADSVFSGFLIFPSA
T2 sequence (P02746 28-253, chain 2 of 3): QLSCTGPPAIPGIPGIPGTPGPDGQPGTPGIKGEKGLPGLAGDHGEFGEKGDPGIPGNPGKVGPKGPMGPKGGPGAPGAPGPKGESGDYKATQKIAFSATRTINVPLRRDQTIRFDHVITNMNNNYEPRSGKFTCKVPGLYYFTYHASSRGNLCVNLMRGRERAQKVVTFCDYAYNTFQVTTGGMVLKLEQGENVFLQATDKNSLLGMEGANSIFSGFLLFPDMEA
T2 sequence (P02747 29-245, chain 3 of 3): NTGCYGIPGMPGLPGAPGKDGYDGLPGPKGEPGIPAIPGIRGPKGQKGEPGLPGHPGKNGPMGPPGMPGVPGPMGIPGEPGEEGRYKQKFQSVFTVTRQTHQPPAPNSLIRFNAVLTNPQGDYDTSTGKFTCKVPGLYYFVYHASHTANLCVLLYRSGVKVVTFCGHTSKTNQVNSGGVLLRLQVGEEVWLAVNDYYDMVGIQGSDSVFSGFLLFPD
Procedure: Protein A purified transfectant supernatants from Example 2 were incubated with plates coated with 0.1 ng/mL NGF to capture the antibodies. The plates were washed and then incubated with human serum and bound complement C1q was measured by binding of anti-human C1q polyclonal antibody HRP and developed as above. The binding of C1q to antigen-captured “eqN-HC2+eqN-kLC-1” was compared to a human anti-NGF MAb with human IgG1 Fc domain as positive control and an IgG4 variant as negative control.
Plates were coated with 100 μl/well of 5 μg/ml mouse NGF and blocked with 5% BSA/PBS. Coated wells were incubated for 1 hour at room temperature with cell culture supernatants, containing recombinant equine anti-NGF IgG, diluted in PBS/1% BSA (100 μl/well). The plates were washed and incubated for 1 hour at room temperature with 100 μl/well of human serum diluted 1/100 in veronal buffered saline containing 0.5 mM MgCl₂, 2 mM CaCl2, 0.05% Tween-20, 0.1% gelatin and 0.5% BSA. After washing, plates were incubated with 100 μl of a 1/800 dilution of sheep anti-C1q-HRP (Serotec) in PBS/1% BSA. After washing, plates were developed by the addition of 100 μl TMB substrate (Thermo Scientific). Development was stopped by the addition of 100 μl of 2N H₂SO₄ and absorbance read at 450 nm.

Protein A = molecular target: T3, Protein A (UniProt P38507 37-327); assay: Protein A affinity chromatography of CHO supernatant; antibody in fractions measured by quantitative NGF ELISA
T3 construct: Column resin

T1 sequence (P01139 122-241 limits assumed): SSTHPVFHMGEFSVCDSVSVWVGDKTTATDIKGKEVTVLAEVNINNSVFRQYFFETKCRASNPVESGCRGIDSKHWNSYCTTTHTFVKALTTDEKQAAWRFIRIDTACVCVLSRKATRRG

Binder	binding result (murine NGF)	binding result [1]	binding result (Protein A)
eqN-HC2+eqN-kLC-1 (equinised αD11 anti-NGF antibody comprising the eqN-kLC-1 light chain and the eqN-HC2 (IgG2) heavy chain) (antibody, Tested as CHO transfectant supernatant or after Protein A purification; also called HC2 (IgG2 constant domain) equinised antibody; equinised HC2 antibody) heavy: QVQLKESGPGLVNPSQTLSLTCTVSGFSLTNNNVNWVRQAPGKGLEWVGGVWAGGATDYNSALKSRATITRDTSKSQVFLQMNSLTSEDTAVYYCARDGGYSSSTLYAMDAWGQGILVTVSSASTTAPKYFQLTPSCGITSDATVALGCLVSDYYPEPVTVSWNSGALTSGVHTFPSVLQSSGLYALSSMVTVPASTWTSETYICNVAHPASSTKVDKRIPPCVLSAEGVIPIPSVPKPQCPPYTHSKFLGGPSVFIFPPNPKDALMISRTPVVTCVVVNLSDQYPDVQFSWYVDNTEVHSAITKQREAQFNSTYRVVSVLPIQHQDWLSGKEFKCSVTNVGVPQPISRAISRGKGPSRVPQVYVLPPHPDELAKSKVSVTCLVKDFYPPDISVEWQSNRWPELEGKYSTTPAQLDGDGSYFLYSKLSLETSRWQQVESFTCAVMHEALHNHFTKTDISESLGK light: DIVMTQSPASLSASLGETVTIECRASEDIYNALAWYQQKPGQSPKLLIYNTDTLHTGVPSRFSGSGSGTDYSLTINSLQSEDVASYFCQHYFHYPRTFGQGTKLELKRDDAKPSAFIFPPSSEELSSGSASVVCLVYGFYPSGATINWKVDGLAKTSSFHSSLTEQDSKDNTYSLSSTLTLPKADYEAHNVYACEVSHKTLSSPLVKSFKRQDC	binds	no binding	
HC6 variant of equinised αD11 (equinised anti-NGF antibody with eqN-HC6 heavy chain and equine kappa light chain) (antibody, also called HC6 antibody; type 6 (HC6) antibody) heavy: QVQLKESGPGLVNPSQTLSLTCTVSGFSLTNNNVNWVRQAPGKGLEWVGGVWAGGATDYNSALKSRATITRDTSKSQVFLQMNSLTSEDTAVYYCARDGGYSSSTLYAMDAWGQGILVTVSSASTTAPKVFQLASHSAGTSDSTVALGCLVSSYFPEPVTVSWNSGALTSGVHTFPSVRQSSGLYSLSSMVTVPASSLKSQTYICNVAHPASSTKVDKRIVIKEPCCCPKCPGRPSVFIFPPNPKDTLMISRTPEVTCVVVDVSQENPDVKFNWYVDGVEAHTATTKAKEKQDNSTYRVVSVLPIQHQDWRRGKEFKCKVNNRALPAPVERTITKAKGELQDPKVYILAPHREEVTKNTVSVTCLVKDFYPPDINVEWQSNEEPEPEVKYSTTPAQLDGDGSYFLYSKLTVETDRWEQGESFTCVVMHEAIRHTYRQKSITNFPGK light: DIVMTQSPASLSASLGETVTIECRASEDIYNALAWYQQKPGQSPKLLIYNTDTLHTGVPSRFSGSGSGTDYSLTINSLQSEDVASYFCQHYFHYPRTFGQGTKLELKRDDAKPSAFIFPPSSEELSSGSASVVCLVYGFYPSGATINWKVDGLAKTSSFHSSLTEQDSKDNTYSLSSTLTLPKADYEAHNVYACEVSHKTLSSPLVKSFKRQDC			no binding
